Data reported in PMC6011876, “Characterization of the ATPase FlaI of the motor complex of the Pyrococcus furiosus archaellum and its interactions between the ATP-binding protein FlaH” (PeerJ, 2018).
Read-outs that look alike come from different tables or passages of the source.

What was measured:
[1] = target: T1, PfFlaI (Pyrococcus furiosus, UniProt Q8U3X0); assay: fluorescence titration (excitation […] nm, emission […] nm); type: binding; settings: 5 mM MgCl2, 20 mM Tris HCl pH 8.0, 150 mM NaCl; 20 °C; stoichiometric titration, two sites per hexamer; labelled compound
T1 construct: gene PF0331; full length, His-tagged, overexpressed in E. coli Rosetta (DE3), 64 kDa subunit, nucleotide-free homohexamer

[2] = target: T1, PfFlaI; assay: fluorescence competition against bound MANT-ATP; type: binding; settings: 20 nM PfFlaI, 10 nM MANT-ATP; 5 mM MgCl2, 20 mM Tris HCl pH 8.0, 150 mM NaCl; 20 °C; Hill fit n = 0.67
[3] = target: T2, Pyrococcus furiosus FlaH (Pyrococcus furiosus, fluorescently labeled (in the microscale thermophoresis)); assay: MST; 28 nM fluorescently labeled PfFlaH titrated with 1.3 nM-22.5 µM Pf-CTD or 5.6 nM-11.6 µM Pf-NTD; 20 mM Tris HCl pH 8.0, 150 mM NaCl, 0.05% Tween-20; Monolith NT.115 Pico; fitted to the Hill equation
T2 chain: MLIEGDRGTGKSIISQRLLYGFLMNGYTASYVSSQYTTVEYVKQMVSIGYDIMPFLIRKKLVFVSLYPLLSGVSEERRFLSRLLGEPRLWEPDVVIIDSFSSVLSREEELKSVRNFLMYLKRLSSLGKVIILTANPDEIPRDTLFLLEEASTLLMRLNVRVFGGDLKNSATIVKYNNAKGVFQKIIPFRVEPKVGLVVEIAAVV

[4] = target: Pyrococcus furiosus FlaI (Pyrococcus furiosus)
[5] = target: Pyrococcus furiosus FlaI (Pyrococcus furiosus); remark: listed apart in the source
[6] = target: Pyrococcus furiosus FlaI (Pyrococcus furiosus); assay: SEC; Superdex 200 10/300 GL; 500 µl of protein at 1 mg/ml; 20 mM Tris HCl pH 8.0, 150 mM NaCl; no nucleotide added; fractions on SDS-PAGE

T1 sequence (Q8U3X0 entry or part of it): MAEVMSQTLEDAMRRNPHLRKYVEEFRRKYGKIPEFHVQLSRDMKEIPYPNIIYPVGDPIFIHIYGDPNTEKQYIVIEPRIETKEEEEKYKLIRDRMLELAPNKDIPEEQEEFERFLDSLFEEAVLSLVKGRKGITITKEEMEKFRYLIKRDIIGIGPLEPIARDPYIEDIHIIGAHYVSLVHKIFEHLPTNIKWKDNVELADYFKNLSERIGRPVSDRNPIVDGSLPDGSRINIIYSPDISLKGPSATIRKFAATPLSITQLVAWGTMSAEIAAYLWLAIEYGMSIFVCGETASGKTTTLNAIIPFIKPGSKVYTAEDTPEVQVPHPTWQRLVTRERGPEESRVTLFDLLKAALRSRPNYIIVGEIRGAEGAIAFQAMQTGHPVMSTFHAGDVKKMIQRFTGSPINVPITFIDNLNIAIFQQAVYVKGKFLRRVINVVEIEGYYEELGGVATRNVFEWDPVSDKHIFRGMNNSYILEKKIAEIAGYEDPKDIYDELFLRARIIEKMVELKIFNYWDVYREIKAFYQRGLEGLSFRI

CNc1ccccc1C(=O)O[C@H]1[C@@H](O)[C@H](n2cnc3c(N)ncnc32)O[C@@H]1COP(=O)(O)OP(=O)(O)OP(=O)(O)O (mixture of isomers) [MANT-ATP, 2′-/3′-O-(N-methylanthraniloyl) adenosine 5′-triphosphate]
fluorescence titration (excitation 285 nm, emission 450 nm) [1]: only two of the ATP binding sites in the hexamer are available for binding of MANT-ATP

Nc1ncnc2c1ncn2[C@@H]1O[C@H](COP(=O)(O)OP(=O)(O)OP(=O)(O)O)[C@@H](O)[C@H]1O [ATP]
IC50 [2]: 260 nM

N-terminal domain of Pyrococcus furiosus FlaI (domain or fragment)
Kd [3]: > 8000 nM

Pyrococcus furiosus FlaH (natural protein)
ATPase activity of PfFlaI at 70 °C (malachite green) on addition of PfFlaH, proteins at 1 µM [4]: 2 fold
ATPase activity at 70 °C of 1 µM PfFlaI with increasing concentrations of PfFlaH; ratio at maximal stimulation (PfFlaH per PfFlaI) [5]: 1

Pyrococcus furiosus FlaI (enzyme)
stoichiometry N [6]: 6

B1: C-terminal domain of Pyrococcus furiosus FlaI (domain or fragment)
chain: LSITQLVAWGTMSAEIAAYLWLAIEYGMSIFVCGETASGKTTTLNAIIPFIKPGSKVYTAEDTPEVQVPHPTWQRLVTRERGPEESRVTLFDLLKAALRSRPNYIIVGEIRGAEGAIAFQAMQTGHPVMSTFHAGDVKKMIQRFTGSPINVPITFIDNLNIAIFQQAVYVKGKFLRRVINVVEIEGYYEELGGVATRNVFEWDPVSDKHIFRGMNNSYILEKKIAEIAGYEDPKDIYDELFLRARIIEKMVELKIFNYWDVYREIKAFYQRGLEGLSFRI
Kd ([3]; both partners purified): 100 nM
